Assay results taken from paper doi:10.1101/2022.08.02.502465.
Like-named read-outs stand apart in the source and are kept apart here.

Experiments:
DNA polymerase I (Pol I) [1] = target: T1, DNA polymerase I (Pol I) (Escherichia coli, UniProt P00582 1-928); assay: BLI
DNA polymerase I (Pol I) [2] = target: T1, DNA polymerase I (Pol I); assay: BLI; remark: listed apart in the source
[3] = target: Pol I endo-mut (endonuclease-dead full-length Pol I) (Escherichia coli, UniProt P00582 1-928, D115A;D140A); assay: cryo-EM structure
[4] = target: Pol I Klenow fragment (Pol IKL) (Escherichia coli, UniProt P00582 328-928); assay: cryo-EM structure

B1: primed BLI substrate (mixed)
DNA 1: CGCTCACTGGCCGTCGTTTTACAACGTCGTGACTGGGAAAACCCTGGCGTTACC
DNA 2: ACGACGTTGTAAAACGACGGCCAGTGAGCG
DNA polymerase I (Pol I) [1]
  Kd: 42 ± 5 nM

B2: continuous BLI substrate (dsDNA)
DNA 1: GGTAACGCCAGGGTTTTCCCAGTCACGACGTTGTAAAACGACGGCCAGTGAGCG
DNA 2: CGCTCACTGGCCGTCGTTTTACAACGTCGTGACTGGGAAAACCCTGGCGTTACC
DNA polymerase I (Pol I) [2]
  Kd: 285 ± 5 nM

B3: flapped Okazaki fragment DNA (cryo-EM) (mixed)
DNA 1: CGCTCACTGGCCGTCGTTTTACAACGTCGTGACTGGGAAAACCCTGGCGTTACC
DNA 2: GGTAACGCCAGGGTTTTCCCAGTC
DNA 3: TTTTTTACGACGTTGTAAAACGACGGCCAGTGAGCG
[3]
  binding result: binds
[4]
  binding result: binds
